Experimental data reported in US20210115144A1 (Dana-Farber, published 2021).

T1: human HHLA2-mIgG2a fusion protein (human; mouse, UniProt Q9UM44 23-344, limits assumed)
T1 construct: also called hHHLA2-mIgG2a; HHLA2-Fc
T1 sequence: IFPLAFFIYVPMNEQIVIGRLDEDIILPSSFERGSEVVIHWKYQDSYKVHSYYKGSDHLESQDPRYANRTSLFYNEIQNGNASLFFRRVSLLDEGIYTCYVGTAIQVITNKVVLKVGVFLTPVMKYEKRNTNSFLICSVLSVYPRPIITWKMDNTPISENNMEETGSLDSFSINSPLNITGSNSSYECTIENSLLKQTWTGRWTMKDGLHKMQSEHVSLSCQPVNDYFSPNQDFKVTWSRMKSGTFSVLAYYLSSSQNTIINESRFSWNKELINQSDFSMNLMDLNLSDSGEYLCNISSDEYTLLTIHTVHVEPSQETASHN

T2: human HHLA2 expressed on transfected cells (300.19 mouse pre-B cells; CHO cells) (human, UniProt Q9UM44 23-414)
T2 construct: also called B7-H7; B7H7
T2 sequence: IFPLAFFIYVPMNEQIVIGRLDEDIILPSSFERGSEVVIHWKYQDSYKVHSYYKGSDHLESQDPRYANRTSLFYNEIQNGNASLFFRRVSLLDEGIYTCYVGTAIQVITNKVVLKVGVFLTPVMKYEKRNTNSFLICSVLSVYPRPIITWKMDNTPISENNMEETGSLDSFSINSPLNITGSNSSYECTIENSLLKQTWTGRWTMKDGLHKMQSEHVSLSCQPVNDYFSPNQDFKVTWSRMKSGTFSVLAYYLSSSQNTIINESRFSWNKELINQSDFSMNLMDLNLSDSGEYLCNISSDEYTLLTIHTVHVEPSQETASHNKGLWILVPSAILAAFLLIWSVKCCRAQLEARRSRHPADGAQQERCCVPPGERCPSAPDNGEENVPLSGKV


Tests used:
[1] = biological target: T1, human HHLA2-mIgG2a fusion protein; assay: cell microarray, HHLA2-mIgG2a on fixed transfected HEK293 cells, AF647 anti-mouse IgG detection
Description: Human HHLA2-mIgG2a fusion protein was added to slides of fixed, transfected HEK293 cell slides at a 20 ug/ml concentration, and the protein was detected with an AF647 labeled anti-mouse IgG detection antibody. Two replicate slides were screened for each of the 13 slide sets. Fluorescent images were analyzed and quantitated (for transfection efficiency) using ImageQuant software (GE). A protein ‘hit’ was defined as duplicate spots showing a raised signal compared to background levels. This was achieved by visual inspection using the images gridded on the ImageQuant software.
Addition of the AF647 labeled anti-mouse IgG detection antibody alone in the absence of HHLA2-mIgG2a produced no signal. The selectivity of HHLA2 binding to KIR3DL3 was evaluated using a panel of 14 KIR receptors arrayed on slides.

[2] = biological target: T2, human HHLA2 expressed on transfected …; assay: flow cytometry, mAb on HHLA2-transfected 300.19 mouse pre-B cells
[3] = biological target: T2, human HHLA2 expressed on transfected …; assay: flow cytometry, mAb titrated on HHLA2-transfected 300.19 pre-B cells, PE goat anti-mouse IgG
Description: (§1) HHLA2 mAb cell binding and receptor blockade experiments were then performed. […] HHLA2 mAb binding to transfected 300.19 cells was detected with PE-labeled goat anti-mouse IgG (H+L). For HHLA2 mAb blocking experiments different concentration of HHLA2 mAbs were pre-incubated with 4 ug/ml of HHLA2-mIgG2a at a 1:1 ratio for 30 minutes and added to either TMIGD2 or KIR3DL3 transfected 293T cells and incubated for 30 minutes at 4° C. HHLA2-mIgG2a binding to TMIGD2 or KIR3DL3 transfected 293T cells was detected with a PE labeled Fab2 goat anti-mIgG2a antibody. EC50 and IC50 analyses were conducted using Graph Pad Prism. It was shown that HHLA2 mAb clone 2C4 has desired properties of complete KIR3DL3 blockade and partial TMIGD2 blockade (Table 6).

[4] = biological target: T1, human HHLA2-mIgG2a fusion protein; assay: flow cytometry, mAb pre-incubated with 4 ug/ml HHLA2-mIgG2a; blockade of its binding to KIR3DL3-transfected 293T cells
Description: as §1

[5] = biological target: T1, human HHLA2-mIgG2a fusion protein; assay: flow cytometry, mAb pre-incubated with 4 ug/ml HHLA2-mIgG2a; blockade of its binding to TMIGD2-transfected 293T cells
Description: as §1

[6] = biological target: T3, cynomolgus monkey HHLA2 expressed on transfected 300.19 pre-B cells (cynomolgus monkey); assay: flow cytometry, mAb titrated on cynomolgus monkey HHLA2-transfected 300.19 pre-B cells
T3 construct: whole, on cells
Description: FIGS. 13A and 13B show HHLA2 mAb binding to human and cynomolgus monkey HHLA2. […] HHLA2 mAb binding to transfected 300.19 cells was detected with a PE-labeled goat anti-mouse IgG (H+L) by flow cytometry.
(§2) Binding of different HHLA2 mAbs to human and cynomolgus monkey HHLA2 was also tested and EC50 binding analysis was conducted (FIGS. 13A and 13B). […] HHLA2 mAb binding to transfected 300.19 cells was detected with PE-labeled goat anti-mouse IgG (H+L). EC50 analysis was conducted using Graph Pad Prism.

[7] = biological target: T2, human HHLA2 expressed on transfected …; assay: flow cytometry, mAb titrated on human HHLA2-transfected 300.19 pre-B cells
Description: as §2

[8] = biological target: T2, human HHLA2 expressed on transfected …; assay: flow cytometry, mAb titrated on HHLA2-transfected 300.19 pre-B cells, PE goat anti-mouse IgG; remark: listed apart in the source
Description: as §2

[9] = biological target: T1, human HHLA2-mIgG2a fusion protein; assay: flow cytometry, mAb pre-incubated with 4 ug/ml HHLA2-mIgG2a; blockade of its binding to KIR3DL3-transfected 300.19 pre-B cells
Description: (§3) HHLA2 mAb binding to transfected 300.19 cells was detected with PE-labeled goat anti-mouse IgG (H+L). […] EC50 and IC50 analyses were conducted using Graph Pad Prism. It was shown that HHLA2 mAb clone 2C4 has desired properties of complete KIR3DL3 blockade and partial TMIGD2 blockade (Table 7).

[10] = biological target: T1, human HHLA2-mIgG2a fusion protein; assay: flow cytometry, mAb pre-incubated with 4 ug/ml HHLA2-mIgG2a; blockade of its binding to TMIGD2-transfected 300.19 pre-B cells
Description: as §3

Row | Binder | binding result [1] | EC50 [2] [µg/mL] | EC50 [3] [µg/mL] | IC50 [4] [µg/mL] | IC50 [5] [µg/mL] | other results
1 | KIR2DS1 (receptor, human, UniProt Q14954 22-304, looked up, whole, on cells) HEGVHRKPSLLAHPGRLVKSEETVILQCWSDVMFEHFLLHREGMFNDTLRLIGEHHDGVSKANFSISRMKQDLAGTYRCYGSVTHSPYQLSAPSDPLDIVIIGLYEKPSLSAQPGPTVLAGENVTLSCSSRSSYDMYHLSREGEAHERRLPAGTKVNGTFQANFPLGPATHGGTYRCFGSFRDSPYEWSKSSDPLLVSVTGNPSNSWPSPTEPSSETGNPRHLHVLIGTSVVKIPFTILLFFLLHRWCSDKKNAAVMDQEPAGNRTVNSEDSDEQDHQEVSYA | no binding (tested: 20 ug/ml) | – | – | – | – | –
2 | anti-HHLA2 monoclonal antibody 1C8 (antibody, IgG2a, V domains shown, also called 499.5.1C8.9.12.2; MHC2564) VH: EVQLQQSGAELVQPGASVKLSCTASGFNIKDTYMHWVKQRPEQGLEWIGRIDPANGKTIFDPKFQVKATITADTSSNTVYLHLSSLTSEDTAIYYCAWLLPYYFDYWGQGTTLTVSS VL: EIVLTQSPAVMAASPGEKVTITCSVSSSISSSNLHWYQQKSGTSPKLWIYGTSNLASGVPVRFSGSGSGTSYSLTISSMEAEDAATYYCQKWSHYPLTFGAGTKLELK | – | 0.63 | 0.63 | 1.15 | 1.65 | –
3 | anti-HHLA2 monoclonal antibody 4D1 (antibody, IgG1, V domains shown, also called 499.5.4D1.5.16; MHC2563) VH: QVQLQQSGAELVRPGVSVKISCKGSGYTFTDYAMHWVKQSHAKSLEWIGSISTYYGDTNYNQKFKGKATMTVDKSSSTAYMELARLTSEDSAIYYCARGNYDDWYFNVWGAGTTVTVSS VL: DIQMTQSPSSLSASLGERVSLTCRASQDISGYLSWLQQKPDGTIKRLIYSTSTLDSGVPKRFSGSRSGSDYSLTISSLESEDFADYYCLQYASSPYTFGGGAKLEIK | – | 0.44 | 0.44 | 0.68 | 0.56 | –
4 | anti-HHLA2 monoclonal antibody 2G2 (antibody, IgG1, V domains shown, also called 499.5.2G2.13.3.10; MHC2561) VH: EVMLVESGGGLVKPGGSLKLSCAVSGLTFSSYAMSWVRQTPEKRLEWVATISSGGSHTYYPDSVKGRFIISRDNAKNTLYLQMNSLRSEDTAMYYCTRLGRAFDYWGQGTTLTVSS VL: DIVMTQSHKFMSTSVGDRVSITCKASQDVSTAVAWYQQKPGQSPKVLIYWASTRHTGVPDRFTGSGSGTDFTLTISSVQAEDLALYYCQQDYSTPWTFGGGTKLEIK | – | 0.21 | 0.21 | 0.53 | 0.85 | –
5 | anti-HHLA2 monoclonal antibody 2C4 (antibody, IgG1, V domains shown, also called 499.5.2C4.E6.6.8.1; MHC2562) VH: EVHLQQSGPELEKPGVSVKISCKASGFSFTDYNMNWVKQSSGKSLEWIGNIDPYYGRINYNQKFKGKATLSVDKSSSTAYMHLKSLTSEDSAVYYCATGAYTSGYSWFAYWGQGTLVTVSA VL: ENVLTQSPGIMAASLGEKVTMTCSASSSVSSSYLHWYQQRSGASPKPLIHRTSNLASGVPARFSGSGSGTSYSLTISSVEAEDDATYYCQQWSGYPFTFGSGTKLEIK | – | 0.24 | 0.24 | 0.52 | 28.2 | EC50 [6]: 0.47 µg/mL; EC50 [7]: 0.29 µg/mL; EC50 [8]: 0.29 µg/mL; IC50 [9]: 0.97 µg/mL; IC50 [10]: 7.3 µg/mL
6 | anti-HHLA2 monoclonal antibody 6D10 (antibody, IgG1, V domains shown, also called 6DI0; 499.5.6D10.11.11.7) VH: EVQLVETGGGLVQPKGSLKLSCAASGFTFNTNVMNWVRQAPGKGLEWVARIRTKTNNYATYYADSVKDRFTIFRDDSQSILYLQMNNLKTEDTAMYYCVGAMDYWGQGTSVTVSS VL: DIVLTQSPASLAVSLGQRATISCRASESVDNYGISFMHWYQQKPGQPPKLLIYRASNLKSGIPARFSGSGSRTDFTLTINPVETGDVATYYCQQSSKDPPTFGTGTKLELK | – | 22.5 | 22.5 | 7 | 11.7 | –

Second part, led by results:

Row | binding result [1] | EC50 [2] [µg/mL] | EC50 [3] [µg/mL] | IC50 [4] [µg/mL] | IC50 [5] [µg/mL] | Binder | other results
7 | no binding (tested: 20 ug/ml) | – | – | – | – | KIR2DS3 (receptor, human, UniProt Q14952 22-304, looked up, whole, on cells) HEGFRRKPSLLAHPGRLVKSEETVILQCWSDVMFEHFLLHREGTFNDTLRLIGEHIDGVSKANFSIGRMRQDLAGTYRCYGSVPHSPYQFSAPSDPLDIVITGLYEKPSLSAQPGPTVLAGESVTLSCSSWSSYDMYHLSTEGEAHERRFSAGPKVNGTFQADFPLGPATQGGTYRCFGSFHDSPYEWSKSSDPLLVSVTGNPSNSWPSPTEPSSKTGNPRHLHVLIGTSVVKLPFTILLFFLLHRWCSDKKNASVMDQGPAGNRTVNREDSDEQDHQEVSYA | –
8 | no binding (tested: 20 ug/ml) | – | – | – | – | KIR2DS2 (receptor, human, UniProt P43631 22-304, looked up, whole, on cells) HEGVHRKPSLLAHPGPLVKSEETVILQCWSDVRFEHFLLHREGKYKDTLHLIGEHHDGVSKANFSIGPMMQDLAGTYRCYGSVTHSPYQLSAPSDPLDIVITGLYEKPSLSAQPGPTVLAGESVTLSCSSRSSYDMYHLSREGEAHERRFSAGPKVNGTFQADFPLGPATHGGTYRCFGSFRDSPYEWSNSSDPLLVSVTGNPSNSWPSPTEPSSKTGNPRHLHVLIGTSVVKIPFTILLFFLLHRWCSNKKNAAVMDQEPAGNRTVNSEDSDEQDHQEVSYA | –
9 | no binding (tested: 20 ug/ml) | – | – | – | – | KIR2DL3 (receptor, human, UniProt P43628 22-341, looked up, whole, on cells) HEGVHRKPSLLAHPGPLVKSEETVILQCWSDVRFQHFLLHREGKFKDTLHLIGEHHDGVSKANFSIGPMMQDLAGTYRCYGSVTHSPYQLSAPSDPLDIVITGLYEKPSLSAQPGPTVLAGESVTLSCSSRSSYDMYHLSREGEAHERRFSAGPKVNGTFQADFPLGPATHGGTYRCFGSFRDSPYEWSNSSDPLLVSVTGNPSNSWPSPTEPSSETGNPRHLHVLIGTSVVIILFILLLFFLLHRWCCNKKNAVVMDQEPAGNRTVNREDSDEQDPQEVTYAQLNHCVFTQRKITRPSQRPKTPPTDIIVYTELPNAEP | –
10 | no binding (tested: 20 ug/ml) | – | – | – | – | KIR2DS5 (receptor, human, UniProt Q14953 22-304, looked up, whole, on cells) HEGFRRKPSLLAHPGPLVKSEETVILQCWSDVMFEHFLLHREGTFNHTLRLIGEHIDGVSKGNFSIGRMTQDLAGTYRCYGSVTHSPYQLSAPSDPLDIVITGLYEKPSLSAQPGPTVLAGESVTLSCSSRSSYDMYHLSREGEAHERRLPAGPKVNRTFQADFPLDPATHGGTYRCFGSFRDSPYEWSKSSDPLLVSVTGNSSNSWPSPTEPSSETGNPRHLHVLIGTSVVKLPFTILLFFLLHRWCSNKKNASVMDQGPAGNRTVNREDSDEQDHQEVSYA | –
